The results in this text go back to patent US20110239311.

Data set [1] deals with GST-NR2F6 fusion protein, S89A mutant, full-length.
In data set [2] the test system is GST-NR2F6 fusion protein, S83A mutant, full-length.
Data set [3] deals with GST-NR2F6 fusion protein, wild-type, full-length (purified recombinant).
GST-NR2F6 fusion protein, wild-type, full-length (purified recombinant), sequence (chain, as listed by the source): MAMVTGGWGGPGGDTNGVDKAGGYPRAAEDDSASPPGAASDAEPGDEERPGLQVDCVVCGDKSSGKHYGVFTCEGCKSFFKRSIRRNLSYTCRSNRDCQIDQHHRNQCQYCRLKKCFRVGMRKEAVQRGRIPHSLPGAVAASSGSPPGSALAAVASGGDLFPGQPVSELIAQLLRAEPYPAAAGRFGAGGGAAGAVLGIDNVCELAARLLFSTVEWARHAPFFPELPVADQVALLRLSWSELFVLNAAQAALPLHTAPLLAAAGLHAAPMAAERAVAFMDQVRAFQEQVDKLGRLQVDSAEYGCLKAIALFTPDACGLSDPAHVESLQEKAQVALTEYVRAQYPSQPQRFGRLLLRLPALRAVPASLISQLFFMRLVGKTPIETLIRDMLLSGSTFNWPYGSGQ

GST-NR2F6 fusion protein, S89A mutant, full-length, sequence (chain, as listed by the source S89A): as the sequence (chain, as listed by the source) above, with S89A counted along it
recombinant PKCtheta, sequence (Q04759 whole entry): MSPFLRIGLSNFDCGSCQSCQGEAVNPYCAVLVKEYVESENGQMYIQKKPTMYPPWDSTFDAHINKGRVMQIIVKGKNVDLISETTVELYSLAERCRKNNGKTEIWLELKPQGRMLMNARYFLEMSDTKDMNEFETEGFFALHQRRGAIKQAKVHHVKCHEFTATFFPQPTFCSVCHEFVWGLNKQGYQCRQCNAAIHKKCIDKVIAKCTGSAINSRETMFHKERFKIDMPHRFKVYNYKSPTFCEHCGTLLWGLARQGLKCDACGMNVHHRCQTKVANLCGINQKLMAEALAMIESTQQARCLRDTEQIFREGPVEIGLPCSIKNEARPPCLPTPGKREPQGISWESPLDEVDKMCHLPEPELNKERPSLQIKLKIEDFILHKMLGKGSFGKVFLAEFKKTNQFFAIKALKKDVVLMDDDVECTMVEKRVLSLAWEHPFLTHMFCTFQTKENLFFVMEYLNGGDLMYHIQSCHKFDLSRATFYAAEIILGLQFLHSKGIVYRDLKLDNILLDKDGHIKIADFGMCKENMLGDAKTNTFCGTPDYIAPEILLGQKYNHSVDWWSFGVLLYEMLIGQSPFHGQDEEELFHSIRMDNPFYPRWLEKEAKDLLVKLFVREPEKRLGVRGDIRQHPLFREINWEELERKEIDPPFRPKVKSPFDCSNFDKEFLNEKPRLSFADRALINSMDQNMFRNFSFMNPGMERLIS
GST-NR2F6 fusion protein, S83A mutant, full-length, sequence (chain, as listed by the source S83A): as the sequence (chain, as listed by the source) above, with S83A counted along it

recombinant PKCalpha: the “in vitro protein kinase assay (32P incorporation into GST-NR2F6)” value (shortened to “in vitro protein kinase assay”) was “This phosphorylation was lost after the predicted phosphorylation site at Ser-83 (but not at Ser-89) was mutated in the full-length NR2F6 protein” in data set [1]; “This phosphorylation was lost after the predicted phosphorylation site at Ser-83 (but not at Ser-89) was mutated in the full-length NR2F6 protein” in data set [2]; “PKCalpha, delta and theta (but not PKCzeta or PKA) were able to phosphorylate recombinant NR2F6 in vitro” in data set [3].

As for recombinant PKCdelta, the “in vitro protein kinase assay” value in data set [1] was “This phosphorylation was lost after the predicted phosphorylation site at Ser-83 (but not at Ser-89) was mutated in the full-length NR2F6 protein”; in data set [2], “This phosphorylation was lost after the predicted phosphorylation site at Ser-83 (but not at Ser-89) was mutated in the full-length NR2F6 protein”; in data set [3], “PKCalpha, delta and theta (but not PKCzeta or PKA) were able to phosphorylate recombinant NR2F6 in vitro”.

With Protein kinase A (PKA), the “in vitro protein kinase assay” value in data set [3] is reported as “(but not PKCzeta or PKA) were able to phosphorylate recombinant NR2F6 in vitro”.

In the case of recombinant PKCtheta, the “in vitro protein kinase assay” value in data set [1] was “This phosphorylation was lost after the predicted phosphorylation site at Ser-83 (but not at Ser-89) was mutated in the full-length NR2F6 protein”; in data set [2], “This phosphorylation was lost after the predicted phosphorylation site at Ser-83 (but not at Ser-89) was mutated in the full-length NR2F6 protein”; in data set [3], “PKCalpha, delta and theta (but not PKCzeta or PKA) were able to phosphorylate recombinant NR2F6 in vitro”.
